Laboratory results published in the supplement of paper PMC10567573.

B1: ACSBG2 (parent)
chain: TPMTIPEFFRESVNRFGTYPALAS
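Further: lentivirally expressed fusions sorted by FACS into six bins by GFP to DsRed ratio, PSI derived from sequencing read proportions per bin multiplied by bin number.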

Variants of: B1
Test: protein stability index of a GFP-peptide fusion (GPS, HEK-293T) (PSI 1-6); higher = more stable
Conditions: c terminus: a fixed tail appended
In the case of TPMTIPEFFRESVNPFGTYPALAS [R15P], the protein stability index is reported as 2.04.
Variant TPMTIPEFFRESVNTFGTYPALAS [R15T] has a protein stability index of 2.57.
Work on TPMTIPEFFRESVNFFGTYPALAS [R15F] yielded a protein stability index of 2.25.
Variant TPMTIPEFFRESVNNFGTYPALAS [R15N] has a protein stability index of 2.5.
TPMTIPEFFRESVNHFGTYPALAS [R15H] gave a protein stability index of 2.14.
TPMTIPEFFRESVNDFGTYPALAS [R15D] gave a protein stability index of 2.78.
Variant TPMTIPEFFRESVNMFGTYPALAS [R15M] has a protein stability index of 1.8.
Work on TPMTIPEFFRESVNSFGTYPALAS [R15S] yielded a protein stability index of 2.64.
For TPMTIPEFFRESVNAFGTYPALAS [R15A], the protein stability index was 2.41.
For TPMTIPEFFRESVNGFGTYPALAS [R15G], the protein stability index was 1.97.
For TPMTIPEFFRESVNEFGTYPALAS [R15E], the protein stability index was 2.62.
Variant TPMTIPEFFRESVNQFGTYPALAS [R15Q] has a protein stability index of 2.69.
For TPMTIPEFFRESVNYFGTYPALAS [R15Y], the protein stability index was 1.99.
TPMTIPEFFRESVNCFGTYPALAS [R15C] showed a protein stability index of 2.12.
TPMTIPEFFRESVNVFGTYPALAS [R15V] gave a protein stability index of 2.41.
Variant TPMTIPEFFRESVNKFGTYPALAS [R15K] has a protein stability index of 2.1.
Work on TPMTIPEFFRESVNLFGTYPALAS [R15L] yielded a protein stability index of 2.38.
Variant TPMTIPEFFRESVNIFGTYPALAS [R15I] has a protein stability index of 2.24.
With TPMTIPEFFRESVNREGTYPALAS [F16E] the protein stability index was 3.37.
Variant TPMTIPEFFRESVNRWGTYPALAS [F16W] has a protein stability index of 2.16.
TPMTIPEFFRESVNRQGTYPALAS [F16Q] gave a protein stability index of 2.8.
In the case of TPMTIPEFFRESVNRVGTYPALAS [F16V], the protein stability index is reported as 2.64.
TPMTIPEFFRESVNRGGTYPALAS [F16G] gave a protein stability index of 2.48.
Work on TPMTIPEFFRESVNRCGTYPALAS [F16C] yielded a protein stability index of 2.54.
TPMTIPEFFRESVNRAGTYPALAS [F16A] showed a protein stability index of 3.51.
Variant TPMTIPEFFRESVNRMGTYPALAS [F16M] has a protein stability index of 3.39.
For TPMTIPEFFRESVNRPGTYPALAS [F16P], the protein stability index was 2.92.
With TPMTIPEFFRESVNRSGTYPALAS [F16S] the protein stability index was 2.71.
Variant TPMTIPEFFRESVNRTGTYPALAS [F16T] has a protein stability index of 2.87.
TPMTIPEFFRESVNRHGTYPALAS [F16H] gave a protein stability index of 3.03.
TPMTIPEFFRESVNRRGTYPALAS [F16R] showed a protein stability index of 2.86.
With TPMTIPEFFRESVNRDGTYPALAS [F16D] the protein stability index was 3.62.
In the case of TPMTIPEFFRESVNRNGTYPALAS [F16N], the protein stability index is reported as 3.41.
TPMTIPEFFRESVNRIGTYPALAS [F16I] gave a protein stability index of 2.36.
Work on TPMTIPEFFRESVNRKGTYPALAS [F16K] yielded a protein stability index of 3.22.
TPMTIPEFFRESVNRLGTYPALAS [F16L] gave a protein stability index of 2.11.
Work on TPMTIPEFFRESVNRYGTYPALAS [F16Y] yielded a protein stability index of 2.22.
TPMTIPEFFREWVNRFGTYPALAS [S12W] gave a protein stability index of 1.39.
TPMTIPEFFREAVNRFGTYPALAS [S12A] gave a protein stability index of 1.97.
For TPMTIPEFFREQVNRFGTYPALAS [S12Q], the protein stability index was 2.65.
With TPMTIPEFFREMVNRFGTYPALAS [S12M] the protein stability index was 2.64.
Variant TPMTIPEFFREVVNRFGTYPALAS [S12V] has a protein stability index of 2.19.
Work on TPMTIPEFFREHVNRFGTYPALAS [S12H] yielded a protein stability index of 2.27.
For TPMTIPEFFREIVNRFGTYPALAS [S12I], the protein stability index was 1.76.
Work on TPMTIPEFFREDVNRFGTYPALAS [S12D] yielded a protein stability index of 2.96.
In the case of TPMTIPEFFREPVNRFGTYPALAS [S12P], the protein stability index is reported as 2.47.
For TPMTIPEFFREFVNRFGTYPALAS [S12F], the protein stability index was 1.66.
With TPMTIPEFFRETVNRFGTYPALAS [S12T] the protein stability index was 2.02.
With TPMTIPEFFRERVNRFGTYPALAS [S12R] the protein stability index was 2.25.
TPMTIPEFFRECVNRFGTYPALAS [S12C] showed a protein stability index of 1.53.
With TPMTIPEFFREEVNRFGTYPALAS [S12E] the protein stability index was 2.69.
In the case of TPMTIPEFFREKVNRFGTYPALAS [S12K], the protein stability index is reported as 2.17.
Work on TPMTIPEFFREGVNRFGTYPALAS [S12G] yielded a protein stability index of 2.48.
TPMTIPEFFRENVNRFGTYPALAS [S12N] gave a protein stability index of 2.25.
Variant TPMTIPEFFREYVNRFGTYPALAS [S12Y] has a protein stability index of 1.86.
Variant TPMTIPEFFRELVNRFGTYPALAS [S12L] has a protein stability index of 2.01.
Variant TPMTIPEFFRESLNRFGTYPALAS [V13L] has a protein stability index of 2.09.
TPMTIPEFFRESQNRFGTYPALAS [V13Q] gave a protein stability index of 2.28.
Work on TPMTIPEFFRESFNRFGTYPALAS [V13F] yielded a protein stability index of 1.97.
TPMTIPEFFRESANRFGTYPALAS [V13A] showed a protein stability index of 2.42.
TPMTIPEFFRESNNRFGTYPALAS [V13N] showed a protein stability index of 2.84.
TPMTIPEFFRESWNRFGTYPALAS [V13W] gave a protein stability index of 1.76.
Variant TPMTIPEFFRESYNRFGTYPALAS [V13Y] has a protein stability index of 2.64.
Variant TPMTIPEFFRESKNRFGTYPALAS [V13K] has a protein stability index of 2.31.
Work on TPMTIPEFFRESCNRFGTYPALAS [V13C] yielded a protein stability index of 3.09.
TPMTIPEFFRESGNRFGTYPALAS [V13G] showed a protein stability index of 2.2.
TPMTIPEFFRESMNRFGTYPALAS [V13M] showed a protein stability index of 2.41.
Variant TPMTIPEFFRESSNRFGTYPALAS [V13S] has a protein stability index of 2.44.
With TPMTIPEFFRESRNRFGTYPALAS [V13R] the protein stability index was 2.37.
For TPMTIPEFFRESINRFGTYPALAS [V13I], the protein stability index was 2.56.
TPMTIPEFFRESENRFGTYPALAS [V13E] gave a protein stability index of 2.78.
With TPMTIPEFFRESHNRFGTYPALAS [V13H] the protein stability index was 2.59.
For TPMTIPEFFRESPNRFGTYPALAS [V13P], the protein stability index was 2.43.
With TPMTIPEFFRESTNRFGTYPALAS [V13T] the protein stability index was 2.98.
For TPMTIPEFFRESDNRFGTYPALAS [V13D], the protein stability index was 2.79.
With TPMTIPEFFRYSVNRFGTYPALAS [E11Y] the protein stability index was 1.68.
Work on TPMTIPEFFRPSVNRFGTYPALAS [E11P] yielded a protein stability index of 1.72.
TPMTIPEFFRSSVNRFGTYPALAS [E11S] showed a protein stability index of 2.15.
For TPMTIPEFFRLSVNRFGTYPALAS [E11L], the protein stability index was 1.48.
In the case of TPMTIPEFFRHSVNRFGTYPALAS [E11H], the protein stability index is reported as 1.84.
In the case of TPMTIPEFFRDSVNRFGTYPALAS [E11D], the protein stability index is reported as 2.58.
In the case of TPMTIPEFFRCSVNRFGTYPALAS [E11C], the protein stability index is reported as 1.95.
In the case of TPMTIPEFFRMSVNRFGTYPALAS [E11M], the protein stability index is reported as 2.76.
Work on TPMTIPEFFRWSVNRFGTYPALAS [E11W] yielded a protein stability index of 2.08.
TPMTIPEFFRFSVNRFGTYPALAS [E11F] showed a protein stability index of 2.47.
Variant TPMTIPEFFRNSVNRFGTYPALAS [E11N] has a protein stability index of 1.82.
Work on TPMTIPEFFRASVNRFGTYPALAS [E11A] yielded a protein stability index of 1.95.
With TPMTIPEFFRQSVNRFGTYPALAS [E11Q] the protein stability index was 1.5.
Variant TPMTIPEFFRGSVNRFGTYPALAS [E11G] has a protein stability index of 1.89.
TPMTIPEFFRKSVNRFGTYPALAS [E11K] gave a protein stability index of 2.09.
Work on TPMTIPEFFRISVNRFGTYPALAS [E11I] yielded a protein stability index of 1.69.
Work on TPMTIPEFFRVSVNRFGTYPALAS [E11V] yielded a protein stability index of 1.99.
In the case of TPMTIPEFFRTSVNRFGTYPALAS [E11T], the protein stability index is reported as 2.17.
For TPMTIPEFFRRSVNRFGTYPALAS [E11R], the protein stability index was 1.99.
